Values joined by “and” are separate entries in the source; they are usually repeats but may differ in a detail not shown here. Equal entries are not always repeated.
Molecular target: the molecule itself
Experiment: cross-linking; glutaraldehyde cross-linking, Western blot of PKM2 oligomers; Mtx2 KO H9C2 cells overexpressing MTX2 mutants, H/R

B1: PKM2 in Mtx2 KO H9C2 cells (cross-linking) (enzyme)
chain: not shown
notes: pyruvate kinase PKM, splice isoform M2; also called dimeric PKM2; source: Mtx2 KO H9C2 cells overexpressing MTX2 mutants, H/R
In the case of B1, the “stoichiometry N” value is reported as 2 and 4.

— PMC12203670, “MTX2 facilitates PKM2 tetramerization to promote cardiac glucose metabolism and protects the heart against ischemia/reperfusion injury” (Theranostics, 2025)
